In patent publication US20220332804A1 (CSL INNOVATION, published 2022):

How the values were obtained:
Experiment in all cases: SPR; KD relative to WT C2;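 also: biacore SPR at 37 °C, anti-C2 mAbs captured on an anti-human IgG chip, alanine or serine C2 surface mutants tested, KD from 1:1 fit compared with wild-type C2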
[1] = biological target: T1, human C2 I272A (human, UniProt P06681 21-752)
T1 sequence: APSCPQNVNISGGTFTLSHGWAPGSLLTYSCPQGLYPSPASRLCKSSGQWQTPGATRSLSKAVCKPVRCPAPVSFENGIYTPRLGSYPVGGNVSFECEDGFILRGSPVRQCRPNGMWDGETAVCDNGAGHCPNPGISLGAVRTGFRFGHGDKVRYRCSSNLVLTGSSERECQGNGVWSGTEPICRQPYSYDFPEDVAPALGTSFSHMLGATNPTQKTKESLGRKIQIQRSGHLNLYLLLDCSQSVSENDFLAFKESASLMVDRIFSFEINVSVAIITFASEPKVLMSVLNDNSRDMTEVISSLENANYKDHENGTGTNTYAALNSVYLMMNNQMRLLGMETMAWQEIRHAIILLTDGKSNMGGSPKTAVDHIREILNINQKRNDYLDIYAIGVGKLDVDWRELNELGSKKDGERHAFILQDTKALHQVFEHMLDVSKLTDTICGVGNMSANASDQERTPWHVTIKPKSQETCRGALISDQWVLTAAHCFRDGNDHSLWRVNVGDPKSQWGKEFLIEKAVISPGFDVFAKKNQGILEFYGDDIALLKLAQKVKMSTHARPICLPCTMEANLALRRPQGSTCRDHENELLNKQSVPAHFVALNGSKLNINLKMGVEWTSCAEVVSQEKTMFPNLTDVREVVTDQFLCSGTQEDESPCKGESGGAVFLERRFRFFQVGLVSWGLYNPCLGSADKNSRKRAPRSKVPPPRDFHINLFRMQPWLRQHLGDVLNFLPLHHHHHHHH

[2] = biological target: T2, human C2 G414A (human, UniProt P06681 21-752)
T2 sequence: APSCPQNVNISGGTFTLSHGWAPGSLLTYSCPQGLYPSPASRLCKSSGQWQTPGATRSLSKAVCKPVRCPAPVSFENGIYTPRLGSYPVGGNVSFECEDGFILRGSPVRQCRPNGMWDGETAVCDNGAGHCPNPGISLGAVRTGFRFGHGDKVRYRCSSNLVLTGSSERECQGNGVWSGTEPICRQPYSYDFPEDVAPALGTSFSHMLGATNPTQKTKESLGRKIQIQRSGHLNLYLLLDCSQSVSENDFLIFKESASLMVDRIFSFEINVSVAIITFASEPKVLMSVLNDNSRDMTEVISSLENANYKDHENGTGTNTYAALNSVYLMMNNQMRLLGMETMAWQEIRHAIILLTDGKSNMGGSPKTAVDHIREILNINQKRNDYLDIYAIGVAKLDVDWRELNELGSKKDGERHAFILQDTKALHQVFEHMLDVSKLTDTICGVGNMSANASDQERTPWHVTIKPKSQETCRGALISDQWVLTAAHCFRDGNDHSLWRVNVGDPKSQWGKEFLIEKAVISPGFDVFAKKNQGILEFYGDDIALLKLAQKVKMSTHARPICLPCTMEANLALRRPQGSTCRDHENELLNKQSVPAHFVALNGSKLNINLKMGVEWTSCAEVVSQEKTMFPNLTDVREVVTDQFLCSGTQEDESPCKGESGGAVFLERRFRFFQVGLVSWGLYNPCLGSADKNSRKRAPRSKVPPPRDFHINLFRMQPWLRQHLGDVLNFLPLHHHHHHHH

[3] = biological target: T3, human C2 R688A (human, UniProt P06681 21-752)
T3 sequence: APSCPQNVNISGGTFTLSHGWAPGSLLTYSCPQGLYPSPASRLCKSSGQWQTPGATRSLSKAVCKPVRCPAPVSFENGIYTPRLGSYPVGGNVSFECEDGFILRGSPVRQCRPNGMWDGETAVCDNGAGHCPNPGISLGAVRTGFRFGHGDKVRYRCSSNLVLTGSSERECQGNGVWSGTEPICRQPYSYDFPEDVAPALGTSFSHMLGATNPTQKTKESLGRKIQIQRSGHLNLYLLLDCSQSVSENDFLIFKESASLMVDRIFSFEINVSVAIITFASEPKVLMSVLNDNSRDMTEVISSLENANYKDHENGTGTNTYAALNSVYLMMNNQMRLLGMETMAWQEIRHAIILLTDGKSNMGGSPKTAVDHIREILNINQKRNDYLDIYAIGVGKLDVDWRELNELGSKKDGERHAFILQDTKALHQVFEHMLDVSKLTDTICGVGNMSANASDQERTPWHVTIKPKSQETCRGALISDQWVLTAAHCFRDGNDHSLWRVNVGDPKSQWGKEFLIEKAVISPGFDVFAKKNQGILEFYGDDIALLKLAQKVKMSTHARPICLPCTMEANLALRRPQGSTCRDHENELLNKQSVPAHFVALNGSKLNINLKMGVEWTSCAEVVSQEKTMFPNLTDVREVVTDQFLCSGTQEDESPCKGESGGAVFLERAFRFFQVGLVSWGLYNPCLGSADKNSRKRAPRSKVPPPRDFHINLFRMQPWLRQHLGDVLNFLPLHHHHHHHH

[4] = biological target: T4, human C2 D417A (human, UniProt P06681 21-752)
T4 sequence: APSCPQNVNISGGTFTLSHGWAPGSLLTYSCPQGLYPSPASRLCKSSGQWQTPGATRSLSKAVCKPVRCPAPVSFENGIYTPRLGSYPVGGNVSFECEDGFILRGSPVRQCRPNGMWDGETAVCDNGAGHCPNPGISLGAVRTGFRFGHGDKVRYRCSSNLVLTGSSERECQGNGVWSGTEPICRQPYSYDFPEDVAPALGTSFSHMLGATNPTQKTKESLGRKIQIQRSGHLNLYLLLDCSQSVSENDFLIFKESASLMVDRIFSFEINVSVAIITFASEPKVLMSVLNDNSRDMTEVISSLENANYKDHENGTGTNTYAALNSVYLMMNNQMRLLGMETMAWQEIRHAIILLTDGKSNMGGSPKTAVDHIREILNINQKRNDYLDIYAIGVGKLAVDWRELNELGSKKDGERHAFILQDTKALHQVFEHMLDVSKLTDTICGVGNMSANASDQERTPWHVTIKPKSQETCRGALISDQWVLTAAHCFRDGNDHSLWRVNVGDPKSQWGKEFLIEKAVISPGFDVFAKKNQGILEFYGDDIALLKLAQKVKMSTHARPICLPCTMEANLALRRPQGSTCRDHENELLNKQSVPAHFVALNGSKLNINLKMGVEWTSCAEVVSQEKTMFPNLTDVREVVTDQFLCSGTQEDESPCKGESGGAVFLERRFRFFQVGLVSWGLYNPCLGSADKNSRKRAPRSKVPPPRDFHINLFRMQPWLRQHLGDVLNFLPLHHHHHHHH

Fold diff [1]: 15 fold
Fold diff [2]: 0 fold
Fold diff [3]: 3 fold
Fold diff [4]: 2 fold
B1: RF16-214 (antibody, V domains shown)
VH: EVQLLESGGGLVQPGGSLRLSCAASGFTFSWYQMMWVRQAPGKGLEWVSRIYPSGGGTAYADSVKGRFTISRDNSKNTLYLQMNSLRAEDTAVYYCARDAGYGDNWGQGTLVTVSS
VL: QSALTQPPSVSVSPGQTASITCSGDKLGEKYASWYQQKAGQSPVMVIYQDRKRPSGIPERFSGSNSGNTATLTISGTQAMDEADYYCQAWDTRAVVFGGGTKLTVLG
